Results on two molecules are retold here after PMC3682517, “Engineering A-kinase Anchoring Protein (AKAP)-selective Regulatory Subunits of Protein Kinase A (PKA) through Structure-based Phage Selection*^([image sbox.jpg])” (The Journal of Biological Chemistry, 2013).

In test [1] the target is T1, wild-type RII(1–45) D/D domain fragment (UniProt P13861 1-45, biotinylated when used as AlphaScreen tracer (site not stated)).
T1 construct: PKA regulatory subunit RIIα, residues 1-45, docking and dimerization (D/D) domain; His6 tag is PreScission-cleavable; also called WT RII; RII D/D domain; not shown: V5, C-terminal, kept
Nature of the test: AlphaScreen or HTRF; competition binding: biotinylated R subunit D/D domain 0.3 nM (tracer), GST-AKAP RII-binding region 3 nM (target), increasing untagged R subunit D/D domain; IC50 approximates Kd; 20 mM HEPES pH 7.2, 100 mM NaCl, 0.1% BSA; 1 h at 4 °C; one-site competition fit. Conditions: both partners purified. (In general: Bead proximity is the source of the signal in Alpha formats.)

For test [2], the target named is T2, R_(Select)AKAP18(1–45) D/D domain fragment (UniProt P13861 2-46, Val-3 in R_(Select)AKAP18 | Leu-5 in R_(Select)AKAP18 | Asp-10 in each …, biotinylated when used as AlphaScreen tracer (site not stated)).
T2 construct: PKA regulatory subunit RIIα, residues 1-45 (D/D domain), variant selected by phage display against AKAP18; changes at positions 3, 5, 10 and 14; not shown: V5, C-terminal, kept
The description is as above. Conditions: both partners purified.

B1: GST-AKAP2 anchoring helix fragment (domain or fragment)
chain: GDSPLVDDPLEYQAGLLVQNAIQQAIAEQVDKAVSKTSRDGAEQQGPEATVEEAEAAAFG
As a reminder, the Kd is the equilibrium constant for the complex coming apart. A low value points to tighter binding. In the case of B1, binding in test [1] was characterised by a dissociation constant (Kd) of 0.0125 ± 0.0018 µM.

B2: GST-AKAP18 anchoring helix fragment (domain or fragment)
chain: NGGEPDDAELVRLSKRLVENAVLKAVQQYLEETQNKNKPGEGSSVKTEAADQNGNDNENNRK
For the molecule B2, the Kd was 0.0163 µM in test [1] and 0.162 µM in test [2].
